Where a chain is given by its changes, count along the chain named.
What was measured:
[1] = target: T1, CD73 mutants having substitutions at residues A99, E129, K133, E134 and A135 (Homo sapiens, UniProt P21589, A135S/A99S/E129A/E134N/K133A); conditions: cited from earlier work
T1 sequence (P21589 27-549 A99S/E129A/K133A/E134N/A135S): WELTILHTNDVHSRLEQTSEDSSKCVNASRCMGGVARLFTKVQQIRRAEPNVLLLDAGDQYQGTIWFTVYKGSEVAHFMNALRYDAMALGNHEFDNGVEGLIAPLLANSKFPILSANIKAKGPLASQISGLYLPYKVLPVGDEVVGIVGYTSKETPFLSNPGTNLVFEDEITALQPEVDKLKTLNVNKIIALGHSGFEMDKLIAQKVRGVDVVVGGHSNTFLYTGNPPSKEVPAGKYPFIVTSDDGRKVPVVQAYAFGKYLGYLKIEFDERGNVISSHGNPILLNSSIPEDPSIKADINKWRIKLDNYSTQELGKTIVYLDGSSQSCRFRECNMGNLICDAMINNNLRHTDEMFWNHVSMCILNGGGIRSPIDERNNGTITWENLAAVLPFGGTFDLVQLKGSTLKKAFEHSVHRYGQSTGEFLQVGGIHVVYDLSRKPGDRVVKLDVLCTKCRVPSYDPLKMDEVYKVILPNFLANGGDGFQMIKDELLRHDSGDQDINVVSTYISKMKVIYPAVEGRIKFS

[2] = tested on: CD73 mutants having a substitution at residues K97, E125, Q153 and K330; conditions: cited from earlier work
[3] = target: T2, CD73 mutants having a substitution at residue K136 (Homo sapiens, UniProt P21589, K136A); conditions: cited from earlier work
T2 sequence (P21589 27-549 K136A): T1 sequence (P21589 27-549 A99S/E129A/K133A/E134N/A135S) with S73A, A103E, A107K, N108E, S109A, K110A

[4] = tested on: other CD39 mutants of Table 1; assay: Epitope mapping by flow cytometry on the other CD39 mutants of Table 1; assay type: binding, human
Description: (§1) CD39 mutants were generated by PCR. The sequences amplified were run on agarose gel and purified using the Macherey Nagel PCR Clean-Up Gel Extraction kit (reference 740609). The purified PCR products generated for each mutant were then ligated into an expression vector, with the ClonTech InFusion system. The vectors containing the mutated sequences were prepared as Miniprep and sequenced. After sequencing, the vectors containing the mutated sequences were prepared as Midiprep using the Promega PureYield™ Plasmid Midiprep System. HEK293T cells were grown in DMEM medium (Invitrogen), transfected with vectors using Invitrogen's Lipofectamine 2000 and incubated at 37° C. in a CO2 incubator for 48 hours prior to testing for transgene expression. The targeted amino acid mutations in the table 1 below are shown using numbering of SEQ ID NO: 2.
(§2) In order to define the epitopes of anti-CD39 antibodies, we designed CD39 mutants defined by substitutions of amino acids exposed at the molecular surface over the surface of CD39.
Mutant 5 contains amino acid substitutions at residues Q96, N99, E143 and R147.
(§3) Mutants were transfected in Hek-293T cells, as shown in the table 1, using numbering of SEQ ID NO: 2. Dose-ranges of test antibodies (10-2.5-0.625-0.1563-0.0391-0.0098-0.0024-0.0006 μg/ml) are tested on the 20 generated mutants by flow cytometry.

[5] = target: T3, soluble recombinant human CD39 protein (Homo sapiens, UniProt P49961); assay: Inhibition of the enzymatic (ATPase) activity of soluble CD39, Cell Titer Glo; assay type: biochemical; conditions: 400 ng/ml soluble CD39, 20 μM ATP
T3 construct: made in house; host or cells: CHO cells
T3 sequence (P49961 with tags, fused parts or gaps): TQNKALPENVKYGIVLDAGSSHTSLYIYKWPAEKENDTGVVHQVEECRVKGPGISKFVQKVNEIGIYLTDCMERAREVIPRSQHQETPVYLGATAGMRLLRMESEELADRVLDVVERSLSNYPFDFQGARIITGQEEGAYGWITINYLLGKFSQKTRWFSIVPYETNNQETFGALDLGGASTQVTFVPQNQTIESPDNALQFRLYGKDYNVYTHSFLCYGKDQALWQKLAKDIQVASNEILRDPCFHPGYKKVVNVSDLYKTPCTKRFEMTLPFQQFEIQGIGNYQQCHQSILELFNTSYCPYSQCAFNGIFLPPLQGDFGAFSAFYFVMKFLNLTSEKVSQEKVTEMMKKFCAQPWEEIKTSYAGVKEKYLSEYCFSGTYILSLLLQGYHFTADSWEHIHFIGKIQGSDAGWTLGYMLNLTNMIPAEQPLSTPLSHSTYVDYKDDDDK
Description: The ability of an antibody to inhibit soluble recombinant human CD39 protein can be tested by detecting ATP after incubating test antibody with soluble CD39 protein (e.g., the CD39 protein having the amino acid sequence of SEQ ID NO: 5, as produced in Example 1, optionally further comprising a purification tag or other functional or non-functional non-CD39-derived amino acid sequence). See, e.g., Example 1. Briefly, ATP can be quantified using the Cell Titer Glo™ (Promega), in an assay in which dose ranges of test antibody are incubated with soluble recombinant human CD39 protein described in Example 1, for 1 hour at 37° C. 20 μM ATP are added to the plates for 30 additional minutes at 37° C. before addition of CTG reagent. Emitted light is quantified using an Enspire™ luminometer after a short incubation period of 5 min in the dark.
The inhibition by antibodies of the enzymatic activity of soluble CD39 protein produced was evaluated using Cell Titer Glo™ (Promega, reference G7571) that allows assessment of ATP hydrolysis through use of a reagent that generates a luminescent signal proportional to the amount of ATP present. In this way, inhibition of the soluble-CD39-mediated ATP hydrolysis can be assessed. Briefly, dose ranges of anti-CD39 antibodies from 100 μg/ml to 6×10^−3 μg/ml were incubated with 400 ng/ml of soluble recombinant human CD39 protein having the amino acid sequence described in the Methods section (SEQ ID NO: 54), for 1h at 37° C. 20 μM ATP was added to the plates for 30 additional minutes at 37° C. before addition of CTG (Cell Titer Glo) reagent. Emitted light was quantified using an Enspire™ luminometer after a short incubation period of 5 min in the dark. Anti-CD39 antibody efficacy was determined by comparing emitted light in presence of antibody with ATP alone (maximal light emission) and ATP together with soluble CD39 protein (minimal light emission).

CD39 mutant 11 = target: T4, CD39 mutant 11 (Homo sapiens, UniProt P49961, DUP378-378/E375A/K376G/L372K/N371K/V377S); assay: Epitope mapping by flow cytometry on Hek-293T cells expressing CD39 mutant 11; assay type: binding; conditions: insertion 377V, V377S (Table 1)
T4 construct: expressed in transfected cells; host or cells: HEK-293T cells
T4 sequence (P49961 with tags, fused parts or gaps N371K/L372K/E375A/K376G/DUP378-378): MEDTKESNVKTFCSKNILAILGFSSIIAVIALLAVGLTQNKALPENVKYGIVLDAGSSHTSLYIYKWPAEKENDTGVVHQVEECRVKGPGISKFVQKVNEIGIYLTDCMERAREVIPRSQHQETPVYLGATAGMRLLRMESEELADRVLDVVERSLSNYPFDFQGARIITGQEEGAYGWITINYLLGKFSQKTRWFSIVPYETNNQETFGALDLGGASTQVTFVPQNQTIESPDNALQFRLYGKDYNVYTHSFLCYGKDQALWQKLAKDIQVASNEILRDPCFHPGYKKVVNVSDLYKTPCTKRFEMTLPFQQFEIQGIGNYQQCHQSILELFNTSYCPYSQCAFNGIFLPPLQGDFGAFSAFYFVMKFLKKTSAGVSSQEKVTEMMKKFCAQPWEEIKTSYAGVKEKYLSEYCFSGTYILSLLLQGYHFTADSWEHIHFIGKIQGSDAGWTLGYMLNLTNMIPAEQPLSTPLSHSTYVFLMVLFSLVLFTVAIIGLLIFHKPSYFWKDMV
Description: as §1, §2, §3

B1: 3C12: anti-CD73 antibody, VH and VL of SEQ ID NOS: 44 and 45 (antibody, listed as Mus musculus, V domains shown)
VH: QIQLQQSGPELVKPGASVKVSCKASGYAFASYNMNWVKQSHGKSLDWIGYIDPYNGGSSYNLTFKGKATLTVDKSSTTAYMHLNSLTSEDSAVYYCARGYGNYKAWFAYWGQGTLVTVSAASTKGP
VL: DVVMTQTPKFLLVSAGDRVTITCKASQSVSNDVAWYQQKPGQSPKLLIYYASTRYTGVPDRFTGSGYGTDFTFTISTVQAEDLAVYFCQQDYSSLTFGAGTKLELKRTVAAP
- binding to CD73 mutants having substitutions at residues A99, E129, K133, E134 and A135 [1]: lose binding
- binding to CD73 mutants having a substitution at residues K97, E125, Q153 and K330 [2]: lose binding
- binding to CD73 mutants having a substitution at residue K136 [3]: lose binding

B2: 8C7: anti-CD73 antibody, VH and VL of SEQ ID NOS: 42 and 43 (antibody, listed as Mus musculus, V domains shown)
VH: B1 VH with Q1E, I2V
VL: B1 VL with D1S, V2I, Q6P
- binding to CD73 mutants having substitutions at residues A99, E129, K133, E134 and A135 [1]: lose binding
- binding to CD73 mutants having a substitution at residues K97, E125, Q153 and K330 [2]: lose binding
- binding to CD73 mutants having a substitution at residue K136 [3]: lose binding

B3: 11E1: anti-CD73 antibody, VH and VL of SEQ ID NOS: 40 and 41 (antibody, listed as Mus musculus, V domains shown)
VH: EIQLQQSGPELVKPGASVKVSCKASGYAFTSYNMYWVKQSHGKSLEWIGYIDPYNGGTSYNQKFKGKATLTVDKSSSTAYMHLNSLTSEDSAVYYCARGYGNYKAWFAYWGQGTLVTVSA
VL: DAVMTQTPKFLLVSAGDRVTITCKASQSVTNDVAWYQQKPGQSPKLLIYYASNRYTGVPDRFTGSGYGTDFTFTISTVQAEDLAVYFCQQDYSSLTFGAGTKLELK
- binding to CD73 mutants having substitutions at residues A99, E129, K133, E134 and A135 [1]: lose binding
- binding to CD73 mutants having a substitution at residues K97, E125, Q153 and K330 [2]: lose binding
- binding to CD73 mutants having a substitution at residue K136 [3]: lose binding

B4: 6E1: anti-CD73 antibody, VH and VL of SEQ ID NOS: 3 and 4 (WO2016/055609) (antibody, listed as Mus musculus, V domains shown)
VH: B3 VH with I2F, S44R, T58S, S85N, G101N
VL: B3 VL with D1S, A2I, V78M
- binding to CD73 mutants having substitutions at residues A99, E129, K133, E134 and A135 [1]: lose binding
- binding to CD73 mutants having a substitution at residues K97, E125, Q153 and K330 [2]: lose binding
- binding to CD73 mutants having a substitution at residue K136 [3]: lose binding

B5: I-399: anti-CD39 antibody, VH SEQ ID NO: 30, VL SEQ ID NO: 31 (antibody, listed as Mus musculus, V domains shown)
VH: PVQLQQPGAEVVMPGASVKLSCKASGYTFTSFWMNWMRQRPGQGLEWIGEIDPSDFYTNSNQRFKGKATLTVDKSSSTAYMQLSSLTSEDSAVYFCARGDFGWYFDVWGTGTSVTVSS
VL: EIVLTQSPTTMTSSPGEKITFTCSASSSINSNYLHWYQQKPGFSPKLLIYRTSNLASGVPTRFSGSGSGTSYSLTIGTMEAEDVATYYCQQGSSLPRTFGGGTKLEIK
- binding to any other mutant of the 20 CD39 mutants [4]: without loss of binding
- inhibition of the enzymatic (ATPase) activity of soluble CD39 protein [5]: showed inhibition
- binding to cells expressing mutant 11 of CD39 (CD39 mutant 11): loss of binding
